Results taken from patent US20090022728A1 (RINAT NEUROSCIENCE, published 2009).
Where a chain is given by its changes, count along the chain named.

B1: 9TL variant M15 Fab (Fab, V domains shown)
VH: QVQLVQSGAEVKKPGASVKVSCKASGYYTEAYYIHWVRQAPGQGLEWMGRIDPATGNTKYAPRLQDRVTMTRDTSTSTVYMELSSLRSEDTAVYYCASLYSLPVYWGQGTTVTVSS
VL: DVVMTQSPLSLPVTLGQPASISCKSSQSLLYSDAKTYLNWFQQRPGQSPRRLIYQISRLDPGVPDRFSGSGSGTDFTLKISRVEAEDVGVYYCLQGTHPPVLFGQGTRLEIKR
notes: Fab; human IgG2 CH1 and kappa CL
B2: 9TL variant M23 Fab (Fab, V domains shown)
VH: B1 VH
VL: B1 VL with P99Y, V101K
notes: as for B1
B3: 9TL variant M20 Fab (Fab, V domains shown)
VH: B1 VH
VL: B1 VL with P99S
notes: as for B1
B4: 9TL variant M31 Fab (Fab, V domains shown)
VH: B1 VH with L99V
VL: B1 VL with P99Y
notes: as for B1
B5: 9TL variant M32 Fab (Fab, V domains shown)
VH: B1 VH with L99I
VL: B1 VL with P99Y
notes: as for B1
B6: 9TL variant M42 Fab (Fab, V domains shown)
VH: B1 VH with L102E
VL: B1 VL with P99Y
notes: as for B1
B7: 9TL variant M46 Fab (Fab, V domains shown)
VH: B1 VH with V104C
VL: B1 VL with P99Y
notes: as for B1
B8: 9TL variant M22 Fab (Fab, V domains shown)
VH: B1 VH
VL: B1 VL with P99Y, V101L
notes: as for B1
B9: 9TL variant M37 Fab (Fab, V domains shown)
VH: B1 VH with L102A
VL: B1 VL with P99Y
notes: as for B1
B10: 9TL variant M25 Fab (Fab, V domains shown)
VH: B1 VH
VL: B1 VL with P99Y, V101T
notes: as for B1
B11: 9TL variant M21 Fab (Fab, V domains shown)
VH: B1 VH
VL: B1 VL with P99E
notes: as for B1
B12: 9TL variant M26 Fab (Fab, V domains shown)
VH: B1 VH
VL: B1 VL with P99Y, V101A
notes: as for B1
B13: 9TL variant M18 Fab (Fab, V domains shown)
VH: B1 VH
VL: B1 VL with P99Q
notes: as for B1
B14: 9TL variant M16 Fab (Fab, V domains shown)
VH: B1 VH
VL: B1 VL with P99A
notes: as for B1
B15: 9TL variant M19 Fab (Fab, V domains shown)
VH: B1 VH
VL: B1 VL with P99M
notes: as for B1
B16: 9TL variant M41 Fab (Fab, V domains shown)
VH: B1 VH with L102Q
VL: B1 VL with P99Y
notes: as for B1
B17: 9TL variant M29 Fab (Fab, V domains shown)
VH: B1 VH
VL: B1 VL with P99Y, L102S
notes: as for B1
B18: 9TL variant M24 Fab (Fab, V domains shown)
VH: B1 VH
VL: B1 VL with P99Y, V101H
notes: as for B1
B19: 9TL variant M27 Fab (Fab, V domains shown)
VH: B1 VH
VL: B1 VL with P99Y, V101E
notes: as for B1
B20: 9TL variant M17 Fab (Fab, V domains shown)
VH: B1 VH
VL: B1 VL with P99W
notes: as for B1
B21: 9TL variant M43 Fab (Fab, V domains shown)
VH: B1 VH with V104I
VL: B1 VL with P99Y
notes: as for B1
B22: 9TL variant M40 Fab (Fab, V domains shown)
VH: B1 VH with L102T
VL: B1 VL with P99Y
notes: as for B1
B23: 9TL variant M30 Fab (Fab, V domains shown)
VH: B1 VH
VL: B1 VL with P99Y, L102V
notes: as for B1
B24: 9TL variant M39 Fab (Fab, V domains shown)
VH: B1 VH with L102S
VL: B1 VL with P99Y
notes: as for B1
B25: 9TL variant M38 Fab (Fab, V domains shown)
VH: B1 VH with L102V
VL: B1 VL with P99Y
notes: as for B1
B26: 9TL variant M36 Fab (Fab, V domains shown)
VH: B1 VH with L102R
VL: B1 VL with P99Y
notes: as for B1
B27: 9TL variant M35 Fab (Fab, V domains shown)
VH: B1 VH with S101G
VL: B1 VL with P99Y
notes: as for B1
B28: 9TL variant M28 Fab (Fab, V domains shown)
VH: B1 VH
VL: B1 VL with P99Y, V101M
notes: as for B1

Molecular target: T1, biotinylated Aβ1-40 peptide (biotinylated (N-biotinylated in Example 7))
T1 construct: captured on streptavidin (SA) chip; also called Biotinylated Aβ peptide 1-40; Aβ1-40 on SA chip
T1 sequence (peptide, as listed by the source): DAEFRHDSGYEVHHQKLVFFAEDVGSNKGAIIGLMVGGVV
Experiment: SPR, Fab over Aβ1-40 on SA chip; kon may be assumed = 9TL (footnote 2)
Method: (§1) Affinities of 9TL Fab fragment and its variants Fab fragments were determined by Surface Plasmon Resonance (SPR) system (BIAcore 3000™, BIAcore, Inc., Piscaway, N.J.). SA chips (streptavidin) were used according to the supplier's instructions. Biotinylated Aβ peptide 1-40 was diluted into HBS-EP (10 mM HEPES pH 7.4, 150 mM NaCl, 3 mM EDTA, 0.005% P20) and injected over the chip at a concentration of 0.005 mg/mL. Using variable flow time across the individual chip channels, two ranges of antigen density were achieved: 10-200 response units (RU) for detailed kinetic studies and 500-600 RU for concentration studies and screening. […] HBS-EP buffer was used as running buffer for all the BIAcore assays. […] The concentrations of the Fab proteins were determined by ELISA and/or SDS-PAGE electrophoresis using a standard Fab of known concentration (determined by amino acid analysis). Kinetic association rates (kₒₙ) and dissociation rates (koff) were obtained simultaneously by fitting the data to a 1:1 Langmuir binding model (Karlsson, R. Roos, H. Fagerstam, L. Petersson, B. (1994). Methods Enzymology 6. 99-110) using the BIAevaluation program. Equilibrium dissociation constant (KD) values were calculated as koff/kₒₙ.
(§2) All amino acid substitutions of the variants shown in Table 3 are described relative to the sequence of 9TL. KD and other kinetic parameters were determined by BIAcore analysis described above with Aβ₁₋₄₀ immobilized on SA chip.

kon	Binder
318000 M⁻¹ s⁻¹	B1
318000 M⁻¹ s⁻¹	B2
318000 M⁻¹ s⁻¹	B3
318000 M⁻¹ s⁻¹	B4
318000 M⁻¹ s⁻¹	B5
318000 M⁻¹ s⁻¹	B6
318000 M⁻¹ s⁻¹	B7
318000 M⁻¹ s⁻¹	B8
318000 M⁻¹ s⁻¹	B9
318000 M⁻¹ s⁻¹	B10
318000 M⁻¹ s⁻¹	B11
318000 M⁻¹ s⁻¹	B12
318000 M⁻¹ s⁻¹	B13
318000 M⁻¹ s⁻¹	B14
318000 M⁻¹ s⁻¹	B15
318000 M⁻¹ s⁻¹	B16
318000 M⁻¹ s⁻¹	B17
318000 M⁻¹ s⁻¹	B18
318000 M⁻¹ s⁻¹	B19
318000 M⁻¹ s⁻¹	B20
318000 M⁻¹ s⁻¹	B21
318000 M⁻¹ s⁻¹	B22
318000 M⁻¹ s⁻¹	B23
318000 M⁻¹ s⁻¹	B24
318000 M⁻¹ s⁻¹	B25
318000 M⁻¹ s⁻¹	B26
318000 M⁻¹ s⁻¹	B27
318000 M⁻¹ s⁻¹	B28

Molecular target: T1, biotinylated Aβ1-40 peptide
Experiment: SPR, Fab over Aβ1-40 on SA chip
Method: as §1, §2

koff	Binder
0.00067 s⁻¹	B1
0.005 s⁻¹	B2
0.002 s⁻¹	B3
0.01 s⁻¹	B4
0.02 s⁻¹	B5
0.015 s⁻¹	B6
0.02 s⁻¹	B7
0.004 s⁻¹	B8
0.00092 s⁻¹	B9
0.008 s⁻¹	B10
0.005 s⁻¹	B11
0.009 s⁻¹	B12
0.0015 s⁻¹	B13
0.0007 s⁻¹	B14
0.0017 s⁻¹	B15
0.01 s⁻¹	B16
0.00076 s⁻¹	B17
0.006 s⁻¹	B18
0.012 s⁻¹	B19
0.001 s⁻¹	B20
0.0003 s⁻¹	B21
0.0045 s⁻¹	B22
0.00068 s⁻¹	B23
0.0023 s⁻¹	B24
0.0015 s⁻¹	B25
0.0009 s⁻¹	B26
0.009 s⁻¹	B27
0.014 s⁻¹	B28

Molecular target: T1, biotinylated Aβ1-40 peptide
Experiment: SPR, Fab over Aβ1-40 on SA chip; KD=koff/kon
Method: as §1, §2

Kd	Binder
2.11 nM	B1
15.7 nM	B2
6.29 nM	B3
31.4 nM	B4
62.9 nM	B5
47.2 nM	B6
62.9 nM	B7
12.6 nM	B8
2.89 nM	B9
25.2 nM	B10
15.7 nM	B11
28.3 nM	B12
4.72 nM	B13
2.2 nM	B14
5.35 nM	B15
31.4 nM	B16
2.39 nM	B17
18.9 nM	B18
37.7 nM	B19
3.14 nM	B20
0.94 nM	B21
14.2 nM	B22
2.14 nM	B23
7.23 nM	B24
4.72 nM	B25
2.83 nM	B26
28.3 nM	B27
44 nM	B28
